Values belong to the molecule of their own block, whether it stands above or below them.
What was measured:
[1] = target: EEF1G (eukaryotic elongation factor 1 subunit gamma), endogenous (human (endogenous in HEK293T)) (UniProt P26641); experiment: mass photometry; EEF1S complex recovered by glutathione-Sepharose from HEK293T lysate and run on SEC (Superdex 200); stoichiometry from the mass (~270 kDa) and Coomassie staining; complex formed in cells and co-purified
[2] = target: endogenously Strep-tagged EEF1G (human (endogenous in HEK293T)) (UniProt P26641); experiment: mass photometry; EEF1H complex recovered by affinity purification of endogenous strep-tagged EEF1G from HEK293T lysates; stoichiometry predicted from molecular weight of components and Coomassie staining; complex formed in cells and co-purified
Sequence of endogenously Strep-tagged EEF1G (human (endogenous in HEK293T)) (P26641 whole entry): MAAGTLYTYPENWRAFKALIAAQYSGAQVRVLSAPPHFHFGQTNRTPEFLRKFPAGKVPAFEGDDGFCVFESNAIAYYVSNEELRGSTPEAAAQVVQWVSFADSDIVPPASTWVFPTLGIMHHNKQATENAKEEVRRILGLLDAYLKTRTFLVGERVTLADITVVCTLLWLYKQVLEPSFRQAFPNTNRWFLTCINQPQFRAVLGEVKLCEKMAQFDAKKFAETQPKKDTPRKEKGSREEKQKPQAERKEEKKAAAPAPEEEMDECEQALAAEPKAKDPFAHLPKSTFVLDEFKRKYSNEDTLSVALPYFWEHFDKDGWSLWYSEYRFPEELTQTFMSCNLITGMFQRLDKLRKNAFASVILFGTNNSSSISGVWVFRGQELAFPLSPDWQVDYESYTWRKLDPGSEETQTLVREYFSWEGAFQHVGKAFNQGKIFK

[3] = target: T1, EEF1G (eukaryotic elongation factor 1 subunit gamma), endogenous (human (endogenous in HEK293T), UniProt P26641 1-437); experiment: mass photometry; EEF1S complex recovered by glutathione-Sepharose from HEK293T lysate and run on SEC (Superdex 200); stoichiometry from the mass (~270 kDa) and Coomassie staining; complex formed in cells and co-purified; conditions: partners not purified
T1 construct: EEF1G, human, endogenous untagged protein in HEK293T lysate, recovered on glutathione-Sepharose; source: endogenous, HEK293T lysate
T1 sequence (P26641 whole entry): as above

[4] = target: T2, endogenously Strep-tagged EEF1G (human (endogenous in HEK293T), UniProt P26641 1-437); experiment: mass photometry; EEF1H complex recovered by affinity purification of endogenous strep-tagged EEF1G from HEK293T lysates; stoichiometry predicted from molecular weight of components and Coomassie staining; complex formed in cells and co-purified; conditions: partners not purified
T2 construct: EEF1G, human, endogenous locus of HEK293T edited to carry an internal Twin-Strep tag in the unstructured region between the GST and C-terminal domains; also called strep-EEF1G; source: endogenous locus tagged by CRISPR-Cas9 knock-in, HEK293T; not shown: Twin-Strep, internal (in the unstructured region between the GST and C-terminal domains), kept
T2 sequence (P26641 whole entry, the tested form may be a part): as the sequence (P26641 whole entry) above

Sequence of EEF1G (eukaryotic elongation factor 1 subunit gamma), endogenous (human (endogenous in HEK293T)) (P26641 whole entry): as above

stoichiometry N [1]: 1
copies in the EEF1H complex (with six copies of EEF1G) [2]: 6 copies
Molecule: EEF1A, endogenous (from UniProt P68104 1-462) (natural protein)

stoichiometry N [3]: ~1
copies in the EEF1H complex (with six copies of EEF1G) [4]: ~4 copies
B1: EEF1B, endogenous (natural protein, human (endogenous in HEK293T), UniProt P24534 1-225, looked up)
chain: MGFGDLKSPAGLQVLNDYLADKSYIEGYVPSQADVAVFEAVSSPPPADLCHALRWYNHIKSYEKEKASLPGVKKALGKYGPADVEDTTGSGATDSKDDDDIDLFGSDDEEESEEAKRLREERLAQYESKKAKKPALVAKSSILLDVKPWDDETDMAKLEECVRSIQADGLVWGSSKLVPVGYGIKKLQIQCVVEDDKVGTDMLEEQITAFEDYVQSMDVAAFNKI
notes: EEF1B (guanine nucleotide exchange factor subunit of EEF1H), human, endogenous in HEK293T; source: endogenous, HEK293T lysate

copies in the EEF1H complex (with six copies of EEF1G) [4]: ~2 copies
B2: valine tRNA synthase (VARS), endogenous (enzyme, human (endogenous in HEK293T), UniProt P26640 1-1264, looked up)
chain: MSTLYVSPHPDAFPSLRALIAARYGEAGEGPGWGGAHPRICLQPPPTSRTPFPPPRLPALEQGPGGLWVWGATAVAQLLWPAGLGGPGGSRAAVLVQQWVSYADTELIPAACGATLPALGLRSSAQDPQAVLGALGRALSPLEEWLRLHTYLAGEAPTLADLAAVTALLLPFRYVLDPPARRIWNNVTRWFVTCVRQPEFRAVLGEVVLYSGARPLSHQPGPEAPALPKTAAQLKKEAKKREKLEKFQQKQKIQQQQPPPGEKKPKPEKREKRDPGVITYDLPTPPGEKKDVSGPMPDSYSPRYVEAAWYPWWEQQGFFKPEYGRPNVSAANPRGVFMMCIPPPNVTGSLHLGHALTNAIQDSLTRWHRMRGETTLWNPGCDHAGIATQVVVEKKLWREQGLSRHQLGREAFLQEVWKWKEEKGDRIYHQLKKLGSSLDWDRACFTMDPKLSAAVTEAFVRLHEEGIIYRSTRLVNWSCTLNSAISDIEVDKKELTGRTLLSVPGYKEKVEFGVLVSFAYKVQGSDSDEEVVVATTRIETMLGDVAVAVHPKDTRYQHLKGKNVIHPFLSRSLPIVFDEFVDMDFGTGAVKITPAHDQNDYEVGQRHGLEAISIMDSRGALINVPPPFLGLPRFEARKAVLVALKERGLFRGIEDNPMVVPLCNRSKDVVEPLLRPQWYVRCGEMAQAASAAVTRGDLRILPEAHQRTWHAWMDNIREWCISRQLWWGHRIPAYFVTVSDPAVPPGEDPDGRYWVSGRNEAEAREKAAKEFGVSPDKISLQQDEDVLDTWFSSGLFPLSILGWPNQSEDLSVFYPGTLLETGHDILFFWVARMVMLGLKLTGRLPFREVYLHAIVRDAHGRKMSKSLGNVIDPLDVIYGISLQGLHNQLLNSNLDPSEVEKAKEGQKADFPAGIPECGTDALRFGLCAYMSQGRDINLDVNRILGYRHFCNKLWNATKFALRGLGKGFVPSPTSQPGGHESLVDRWIRSRLTEAVRLSNQGFQAYDFPAVTTAQYSFWLYELCDVYLECLKPVLNGVDQVAAECARQTLYTCLDVGLRLLSPFMPFVTEELFQRLPRRMPQAPPSLCVTPYPEPSECSWKDPEAEAALELALSITRAVRSLRADYNLTRIRPDCFLEVADEATGALASAVSGYVQALASAGVVAVLALGAPAPQGCAVALASDRCSIHLQLQGLVDPARELGKLQAKRVEAQRQAQRLRERRAASGYPVKVPLEVQEADEAKLQQTEAELRKVDEAIALFQKML
notes: valine tRNA synthase (VARS), human, endogenous in HEK293T; source: endogenous, HEK293T lysate

copies in the EEF1H complex (with six copies of EEF1G) [4]: ~4 copies
B3: EEF1D, endogenous (natural protein, human (endogenous in HEK293T), UniProt P29692 1-281, looked up)
chain: MATNFLAHEKIWFDKFKYDDAERRFYEQMNGPVAGASRQENGASVILRDIARARENIQKSLAGSSGPGASSGTSGDHGELVVRIASLEVENQSLRGVVQELQQAISKLEARLNVLEKSSPGHRATAPQTQHVSPMRQVEPPAKKPATPAEDDEDDDIDLFGSDNEEEDKEAAQLREERLRQYAEKKAKKPALVAKSSILLDVKPWDDETDMAQLEACVRSIQLDGLVWGASKLVPVGYGIRKLQIQCVVEDDKVGTDLLEEEITKFEEHVQSVDIAAFNKI
notes: EEF1D (guanine nucleotide exchange factor subunit of EEF1H), human, endogenous in HEK293T; source: endogenous, HEK293T lysate

Source: paper doi:10.1101/2025.10.13.682107, “Oxidative stress sensing by the translation elongation machinery promotes production of detoxifying selenoproteins” (bioRxiv, 2025)
